The target in this test is Trop2 ectodomain (N120Q, N208Q) (human) (UniProt P09758). In words: crystal structure; X-ray, 2.81 Å; sitting drop vapor diffusion, 1.6 M ammonium sulfate, 0.5 M NaCl, 13.3 mM EDTA, 0.1 M MES pH 5.8, protein at 10 mg/mL; crystal contacts analysed with PISA.

In turn, “Trop2 ectodomain (N120Q, N208Q) (from UniProt P09758 27-274) (domain or fragment)” had a stoichiometry N of 2.

The values above are taken from article PMC8508679.
